As a reminder, the EC50 (read off the curve) is the midpoint of the concentration-response curve. Low readings indicate an effect from little substance, high ones a need for much substance. In general, koff refers to the rate constant with which the complex falls apart. As usually defined, the kon is the second-order rate constant of association.

Assay [1] has as its target T1, intact Her2 expressed at the cell surface (human, UniProt P04626 23-1255).
T1 construct: whole, on cells; also called Her2 on SKOV3 cells; Her2 on JIMT-1 cells
Put plainly: flow cytometry on SKOV3 cells, pH 6.0 vs pH 7.3. A general note: In flow cytometry, cells or beads pass a laser one at a time.
Experimental: (§1) The cells were washed twice in 200 μL binding buffer, followed by addition of 120 μL 1.0% propidium iodide and samples were then transferred to Multiscreen 96-well plates (60 μm Nylon Mesh, Millipore, Etobicoke, ON) and filtered by centrifugation. The filtrate samples were collected from the Multiscreen receiver plate and transferred to a new V-bottom polypropylene plate at 4° C. Flow cytometric analysis was performed on a BD LSR-Fortessa instrument (BD Biosciences, San Jose, Calif.). […] Median fluorescence intensity (MFI) was reported by analyzing 3000 alive cells per sample with the gating strategy: all cells/singlets/alive cells (PI negative) using BD FACSDiva software (BD Biosciences).
(§2) The designed variants were then reformatted into human IgG1/k FSAs and re-tested on the high-density Her2 cells.

Assay [2] concerns the target T1, intact Her2 expressed at the cell …. Put plainly: flow cytometry on SKOV3 cells, pH 6.8 vs pH 7.3.
Experimental: as §1, §2
Assay [3] shares this target. In words: flow cytometry on SKOV3 cells, apparent KD, pH 7.3 (Bmax not reached).
Experimental: as §1, §2
The target is the same in assay [4]. Put plainly: flow cytometry (FACS) on SKOV3 cells, full-size antibody, pH 5.2.
Experimental: (§3) Cells in T-75 flasks were washed twice with D-PBS and then dissociated using Cell Dissociation buffer (Sigma, C5914) at 37° C. […] The cells were then washed twice by centrifugation at 233×g, removal of supernatant by aspiration and resuspending the cells in 200 μL binding buffer at 4° C. Detection reagent, either anti-human Fab or Fc AlexaFluor488-(Fab′)² (Jackson Immunochemicals, West Groove, Pa.), was then added at a final concentration of 10 μg/mL and samples were incubated at 4° C., 1 h. The cells were washed twice in 200 μL binding buffer, followed by addition of 120 μL 1.0% propidium iodide and samples were then transferred to Multiscreen 96-well plates (60 μm Nylon Mesh, Millipore, Etobicoke, ON) and filtered by centrifugation. The filtrate samples were collected from the Multiscreen receiver plate and transferred to a new V-bottom polypropylene plate at 4° C. Flow cytometric analysis was performed on a BD LSR-Fortessa instrument (BD Biosciences, San Jose, Calif.). […] Median fluorescence intensity (MFI) was reported by analyzing 3000 alive cells per sample with the gating strategy: all cells/singlets/alive cells (PI negative) using BD FACSDiva software (BD Biosciences).
as §2
Assay [5] has the same target. Put plainly: flow cytometry (FACS) on SKOV3 cells, full-size antibody, pH 6.0.
Experimental: as §3, §2
The target is the same in assay [6]. In words: flow cytometry (FACS) on SKOV3 cells, full-size antibody, pH 6.4.
Experimental: as §3, §2
Assay [7] shares this target. In words: flow cytometry on SKOV3 cells, apparent KD, pH 5.2; FSA, SKOV3 cells, pH 5.2.
Experimental: as §1, §2
Assay [8] shares this target. In words: flow cytometry on SKOV3 cells, apparent KD, pH 5.6; FSA, SKOV3 cells, pH 5.6.
Experimental: as §1, §2
Assay [9] shares this target. Put plainly: flow cytometry on SKOV3 cells, apparent KD, pH 6.0; FSA, SKOV3 cells, pH 6.0.
Experimental: as §1, §2
The target is the same in assay [10]. Put plainly: flow cytometry on SKOV3 cells, apparent KD, pH 6.4; FSA, SKOV3 cells, pH 6.4.
Experimental: as §1, §2
For assay [11] the target is unchanged. In words: flow cytometry on SKOV3 cells, apparent KD, pH 6.8; FSA, SKOV3 cells, pH 6.8.
Experimental: as §1, §2
Assay [12] addresses T2, Recombinant human Her2 extracellular domain (human, UniProt P04626 23-652).
T2 construct: extracellular domain; also called Her2 ectodomain; recombinant Her2 ectodomain
In words: SPR, Fab over immobilized Her2 ectodomain, pH 7.4, 25 C. (Surface plasmon resonance follows binding to a sensor surface in real time, without labels.)
Experimental: (§4) Fab-Her2 interactions were analyzed using a Biacore™ T200 (GE Healthcare, Missisauga, ON) surface plasmon resonance instrument. […] Recombinant human Her2 extracellular domain (ThermoFisher Scientific, Burlington, ON) was immobilized onto a CM-5 sensorchip along with a mock-activated blank control surface for referencing. Her2 was diluted to 10 μg/mL in 10 mM NaOAc immobilization buffer pH 4.5 (Biacore) and immobilized to approximately 200 RUs using the Biacore control software Immobilization Wizard with standard NHS/EDC amine coupling. […] Fab samples were injected at 100 4/min with a contact time of 90 s and a 1200-s dissociation using either pH 5.0 or 7.4 running buffer. Sensorgrams were double referenced to the mock-activated blank sensor surface and analyzed for kinetic determination using a 1:1 binding model in BiaEvaluation software v3.1 (GE Healthcare).

For assay [13], the target named is T2, Recombinant human Her2 extracellular …. Put plainly: SPR, Fab over immobilized Her2 ectodomain, pH 5.0, 25 C.
Experimental: as §4
For assay [14], the target named is T1, intact Her2 expressed at the cell …. In words: flow cytometry on SKOV3 cells, apparent KD, pH 5.2.
The target is the same in assay [15]. Put plainly: flow cytometry on SKOV3 cells, apparent KD, pH 5.6.
For assay [16] the target is unchanged. In words: flow cytometry on SKOV3 cells, apparent KD, pH 6.0.
Assay [17] shares this target. Put plainly: flow cytometry on SKOV3 cells, apparent KD, pH 6.4.
The target is the same in assay [18]. In words: flow cytometry on SKOV3 cells, apparent KD, pH 6.8.
Assay [19] shares this target. Put plainly: flow cytometry on SKOV3 cells, apparent KD, pH 7.3.
Assay [20] shares this target. Put plainly: flow cytometry (FACS) on SKOV3 cells, full-size antibody, pH 7.3.
For assay [21] the target is unchanged. In words: flow cytometry on JIMT-1 cells (low Her2 density), full-size antibody, pH 6.0.
For assay [22] the target is unchanged. In words: flow cytometry on JIMT-1 cells (low Her2 density), full-size antibody, pH 7.3.
Assay [23] shares this target. In words: flow cytometry on SKOV3 cells, apparent KD, pH 7.3. This is another data set of the same source.
Assay [24] has the same target. Put plainly: flow cytometry on SKOV3 cells, apparent KD, pH 5.2 (Bmax not reached).
For assay [25] the target is unchanged. Put plainly: cell-based or functional assay.
In assay [26] the target is T2, Recombinant human Her2 extracellular …. In words: SPR, pH 5.0 vs pH 7.4.
Experimental: as §4
The target of assay [27] is T1, intact Her2 expressed at the cell …. In words: flow cytometry on SKOV3 cells, pH 5.2, against bH1-P5 and bH1-P5P7 Fabs.
Experimental: (§5) The cells were then washed twice by centrifugation at 233×g, removal of supernatant by aspiration and resuspending the cells in 200 μL binding buffer at 4° C. Detection reagent, either anti-human Fab or Fc AlexaFluor488-(Fab′)² (Jackson Immunochemicals, West Groove, Pa.), was then added at a final concentration of 10 μg/mL and samples were incubated at 4° C., 1 h. The cells were washed twice in 200 μL binding buffer, followed by addition of 120 μL 1.0% propidium iodide and samples were then transferred to Multiscreen 96-well plates (60 μm Nylon Mesh, Millipore, Etobicoke, ON) and filtered by centrifugation. The filtrate samples were collected from the Multiscreen receiver plate and transferred to a new V-bottom polypropylene plate at 4° C. Flow cytometric analysis was performed on a BD LSR-Fortessa instrument (BD Biosciences, San Jose, Calif.). […] Median fluorescence intensity (MFI) was reported by analyzing 3000 alive cells per sample with the gating strategy: all cells/singlets/alive cells (PI negative) using BD FACSDiva software (BD Biosciences).
Assay [28] addresses T2, Recombinant human Her2 extracellular …. Put plainly: SPR, acidic pH 5.0 vs physiological pH 7.4, relative to the parent bH1.
Experimental: as §4
Assay [29] concerns the target T1, intact Her2 expressed at the cell …. Put plainly: flow cytometry on SKOV3 cells, apparent KD, pH 5.2 (Bmax not reached); Fab, SKOV3 cells, pH 5.2 (acidic); approximate, Bmax not reached.
Experimental: as §5

B1: bH1-P5P7-FSA (antibody, human IgG1, kappa, V domains shown)
VH: not shown
VL: DIQMTQSPSSLSASVGDRVTITCRASQDIPHSISGYVAWYQQKPGKAPKLLIYWGSYLYSGVPSRFSGSGSGTDFTLTISSLQPEDFATYYCQQHYTTPPTFGQGTKVEIKR
notes: also called bH1-P5P7 full-size antibody
Take B1: in assay [1], the “fold pH-selectivity, pH 6.0 over pH 7.3” value is above 10 fold. Further, the “fold pH-selectivity, pH 6.8 over pH 7.3” value in assay [2] was around 25 fold. The Kd is around 716 nM in assay [3]; 8.4 nM in assay [7]; 9.5 nM in [8]; 9.7 nM in assay [9]; 16 nM in [10]; 29.7 nM in [11]. In addition, the “EC50 (read off the curve)” value in [4] is around 8 nM; in assay [5], around 10 nM; in assay [6] it was around 20 nM.

B2: bH1-P6 (H-Y100aH) Fab (Fab, V domains shown)
VH: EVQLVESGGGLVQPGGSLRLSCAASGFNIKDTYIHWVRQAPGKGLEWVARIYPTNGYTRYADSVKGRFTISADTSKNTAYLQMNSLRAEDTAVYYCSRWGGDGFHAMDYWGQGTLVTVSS
VL: DIQMTQSPSSLSASVGDRVTITCRASQDIPRSISGYVAWYQQKPGKAPKLLIYWGSYLYSGVPSRFSGSGSGTDFTLTISSLQPEDFATYYCQQHYTTPPTFGQGTKVEIKR
Regarding B2, in assay [12], the Kd is 10 nM, the koff was 0.0048 s⁻¹ and the kon was found to be 480000 M⁻¹ s⁻¹.

B3: bH1-P8 (L-S30bH) Fab (Fab, V domains shown)
VH: not shown
VL: DIQMTQSPSSLSASVGDRVTITCRASQDIPRHISGYVAWYQQKPGKAPKLLIYWGSYLYSGVPSRFSGSGSGTDFTLTISSLQPEDFATYYCQQHYTTPPTFGQGTKVEIKR
As for B3, the Kd in assay [13] amounted to 9.9 nM; in assay [12], 3.4 nM.

B4: parental bH1-FSA (full-size human IgG1/k antibody) (antibody, V domains shown)
VH: not shown
VL: DIQMTQSPSSLSASVGDRVTITCRASQDIPRSISGYVAWYQQKPGKAPKLLIYWGSYLYSGVPSRFSGSGSGTDFTLTISSLQPEDFATYYCQQHYTTPPTFGQGTKVEIKR
Regarding B4, the Kd is 2.6 nM in assay [14]; 1.5 nM in assay [15]; 2.9 nM in assay [16]; 2.9 nM in assay [17]; 2 nM in assay [18]; 4.1 nM in [19]. Moreover, the “EC50 (read off the curve)” value in assay [4] is around 3 nM; in assay [5] it was around 3 nM; in assay [6] it was around 3 nM; in assay [20] it was around 4 nM; in assay [21] it was around 2 nM; in assay [22] it was around 2 nM.

B5: bH1-P7 (L-R30aH) Fab (Fab, V domains shown)
VH: not shown
VL: DIQMTQSPSSLSASVGDRVTITCRASQDIPHSISGYVAWYQQKPGKAPKLLIYWGSYLYSGVPSRFSGSGSGTDFTLTISSLQPEDFATYYCQQHYTTPPTFGQGTKVEIKR
For the molecule B5, the Kd in assay [13] came out at 17 nM; in assay [12], 5.7 nM.

B6: parental bH1-Fab (Fab, V domains shown)
VH: not shown
VL: DIQMTQSPSSLSASVGDRVTITCRASQDIPRSISGYVAWYQQKPGKAPKLLIYWGSYLYSGVPSRFSGSGSGTDFTLTISSLQPEDFATYYCQQHYTTPPTFGQGTKVEIKR
As for B6, the Kd in assay [23] is 21.3 nM; in [13], 13 nM; in assay [12], 3 nM; in assay [24] it was around 41 nM.

B7: bH1-P5P8-FSA (antibody, human IgG1, kappa, V domains shown)
VH: not shown
VL: DIQMTQSPSSLSASVGDRVTITCRASQDIPRHISGYVAWYQQKPGKAPKLLIYWGSYLYSGVPSRFSGSGSGTDFTLTISSLQPEDFATYYCQQHYTTPPTFGQGTKVEIKR
notes: also called bH1-P5P8 full-size antibody
As for B7, the “internalization of FITC conjugated antibody into BT474 cells, pH 6.4” value in [25] is 2 fold over negative control. For the same molecule, the Kd was around 290 nM in assay [3], 12.3 nM in assay [7], 15.1 nM in assay [10] and 21.7 nM in assay [11]. Besides, the “EC50 (read off the curve)” value was around 10 nM in [4], around 10 nM in [5] and around 20 nM in assay [6].

B8: bH1-P5P8 (H-R58H,L-S30bH) Fab (Fab, V domains shown)
VH: not shown
VL: DIQMTQSPSSLSASVGDRVTITCRASQDIPRHISGYVAWYQQKPGKAPKLLIYWGSYLYSGVPSRFSGSGSGTDFTLTISSLQPEDFATYYCQQHYTTPPTFGQGTKVEIKR
notes: also called bH1-P5P8-Fab; bH1-P5P8 Fab
B8: the “fold stronger binding at acidic pH than at physiological pH” value in [26] was around 6 fold. In addition, in assay [13], the Kd amounted to 50 nM, the koff worked out at 0.0037 s⁻¹ and the kon came to 90000 M⁻¹ s⁻¹. Moreover, in assay [12], the Kd was determined as 290 nM, the koff is 0.011 s⁻¹ and the kon came to 40000 M⁻¹ s⁻¹. The “fold stronger affinity than bH1-P5 and bH1-P5P7” value in [27] is around 2 fold. Also, the ΔΔΔGbinding in assay [28] was -1.91 kcal/mol. Also, in assay [29], the Kd was around 93 nM.

B9: bH1-P5P7 (H-R58H,L-R30aH) Fab (Fab, V domains shown)
VH: not shown
VL: DIQMTQSPSSLSASVGDRVTITCRASQDIPHSISGYVAWYQQKPGKAPKLLIYWGSYLYSGVPSRFSGSGSGTDFTLTISSLQPEDFATYYCQQHYTTPPTFGQGTKVEIKR
notes: also called bH1-P5P7-Fab
Turning to B9, the “fold stronger binding at acidic pH than at physiological pH” value in [26] was around 6 fold. In [13], the Kd turned out to be 90 nM, the koff came to 0.0057 s⁻¹ and the kon stood at 70000 M⁻¹ s⁻¹. In assay [12], the Kd came out at 530 nM, the koff was determined as 0.021 s⁻¹ and the kon is 40000 M⁻¹ s⁻¹. Also, in assay [28], the ΔΔΔGbinding is -1.93 kcal/mol. The Kd in assay [29] was around 178 nM.
